Measurements reported in patent publication US20250154240A1 (CHIOME BIOSCIENCE, published 2025).
Substitutions are numbered along the chain they refer to.

Tests used:
human CXCL1 protein [1] = target: T1, human CXCL1 protein (human, UniProt P09341 35-107); assay: antigen-immobilized ELISA, HuCXCL1 on the plate, absorbance (lower left panel)
T1 construct: also called HuCXCL1
T1 sequence: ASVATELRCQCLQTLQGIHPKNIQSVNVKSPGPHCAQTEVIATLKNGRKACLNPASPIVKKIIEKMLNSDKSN

human CXCL1 protein [2] = target: T1, human CXCL1 protein; assay: antigen-immobilized ELISA, HuCXCL1 on the plate, absorbance (upper left panel)
human CXCL1 protein [3] = target: T1, human CXCL1 protein; assay: cell-based or functional assay

B1: Hu5A-5E11 VH1/VL2 (antibody, V domains shown)
VH: QVQLVQSGAEVKKPGSSVKVSCKASGYAFSDYWMNWVRQAPGQGLEWIGQIYPGSGDTNYNAKFKGKGTITADKSTSTAYMELSSLRSEDTAVYYCARERDYDVAMDYWGQGTTVTVSS
VL: DIQMTQSPSSLSASVGDRVTITCKASQDINKYIAWFQQKPGKAPKLVIHYTSILQPGVPSRFSGVGSGTDYTFTISSLQPEDIATYYCLQYDNLPWTFGGGTKVEIK
notes: Humanized antibody
Question: How did the “EC50 (read off the curve)” value (human CXCL1 protein [1]) turn out when B1 was run?
Answer: Its value is ~20 ng/mL.

B2: Hu5A-5E11 VH2/VL1 (antibody, V domains shown)
VH: B1 VH with I70L
VL: B1 VL with V65S
notes: Humanized antibody
Question: With B2 as the binder, how does the “EC50 (read off the curve)” value (human CXCL1 protein [1]) read?
Answer: Its value is ~20 ng/mL.

B3: Hu5A-5E11 VH2/VL2 (antibody, V domains shown)
VH: B1 VH with I70L
VL: B1 VL
notes: Humanized antibody
Question: For B3, which “EC50 (read off the curve)” value (human CXCL1 protein [1]) is on record?
Answer: Its value is ~20 ng/mL.

B4: Hu1A-7H10 VH1/VL1 (antibody, V domains shown)
VH: QVTLKESGPVLVKPTETLTLTCTVSGFSSTTYGVHWVRQPPGKALEWLGVIWAGGSTNYNAALMSRLTISKDTSKSQVVLTMTNMDPVDTATYYCATQYHYPFAYWGQGTLVTVSS
VL: DIQMTQSPSSLSASVGDRVTITCKASENVGIYVSWYQQKPGKAPKLMIYGASNRNTGVPSRFSGSGSGTDFTLTISSLQPEDFATYYCGQSYSYPLTFGGGTKVEIK
Question: Which “EC50 (read off the curve)” value (human CXCL1 protein [2]) does the source give for B4 here?
Answer: The value was ~20 ng/mL.

B5: Hu1A-7H10 VH1/VL2 (antibody, V domains shown)
VH: B4 VH
VL: B4 VL with G68A
notes: Humanized antibody
Question: With B5 as the binder, how does the “EC50 (read off the curve)” value (human CXCL1 protein [2]) read?
Answer: Its value is ~20 ng/mL.

B6: Hu1A-7H10 VH2/VL2 (antibody, V domains shown)
VH: B4 VH with T73N
VL: B4 VL with G68A
notes: Humanized antibody
Question: How did the “EC50 (read off the curve)” value (human CXCL1 protein [2]) turn out when B6 was run?
Answer: Its value is ~20 ng/mL.

B7: Hu1A-7H10 VH2/VL1 (antibody, V domains shown)
VH: B4 VH with T73N
VL: B4 VL
notes: Humanized antibody
Question: For B7, which “EC50 (read off the curve)” value (human CXCL1 protein [2]) is on record?
Answer: Its value is ~20 ng/mL.

B8: 5A-5E11 (antibody, V domains shown)
VH: QVQLQQSGAELVRPGSSVKISCKASGYAFSDYWMNWVKQRPGQGLEWIGQIYPGDGDTNYNGKFKGKGTLTADKSSSTAYMQLNSLTSEDSAVYFCARERDYDVAMDYWGQGTSVTVSS
VL: DIQMTQSPSSLSASLGGKVTITCKASQDINKYIAWFQHKPGKGPRLVIHYTSILQPGIPSRFSGVGSGRDYSFSIRNLEPEDIATYYCLQYDNLPWTFGGGTKLEIK
Question: How did the “HuCXCL1 neutralizing activity EC50 (nM), Ca^2+ Flux assay” value (human CXCL1 protein [3]) turn out when B8 was run?
Answer: Its value is 3.96 nM.

B9: mh5A-5E11_VH7/VL (antibody, V domains shown)
VH: B8 VH with D55S, G62A
VL: B8 VL
Question: With B9 as the binder, how does the “EC50 (read off the curve)” value (human CXCL1 protein [1]) read?
Answer: Its value is ~20 ng/mL.

B10: 4A-2F7 (antibody, V domains shown)
VH: QVTLKESGPGILKPSQTLSLTCSFSGFSLSTSGMGVDWIRQPSGKGLEWLAHIWWDDDKYYNPSLKSQLTISKDTSRNQVFLKITSVDTADTATYYCARSYGYDMDYYAMDYWGQGTSVTVSS
VL: DIQMTQSPSSLSASLGERVSLTCRASQEISGYLSWLQQKPDGTIKRLIYAASTLDSGVPKRFSGSRSGSDYSLTISSLESEDFADYYCLQYASYPPWTFGGGTKLEIK
Question: With B10 as the binder, how does the “HuCXCL1 neutralizing activity EC50 (nM), Ca^2+ Flux assay” value (human CXCL1 protein [3]) read?
Answer: The value was 4.8 nM.

B11: mh1A-7H10_VH1/VL (antibody, V domains shown)
VH: QVQLKESGPVLVAPSQSLSITCSVSGFSSTTYGVHWVRQPPGQGLEWLGVIWAGGSTNYNAALMSRLSISKDNSKSQVFLKMNSLQTDDTAMYYCATQYHYPFAYWGQGTLVTVSA
VL: NIVMTQSPKSMSMSVGERVTLSCKASENVGIYVSWYQQKPEQSPKLMIYGASNRNTGVPDRFTGSGSATDFTLTISSVQAEDLADYYCGQSYSYPLTFGAGTKLELK
Question: With B11 as the binder, how does the “EC50 (read off the curve)” value (human CXCL1 protein [2]) read?
Answer: Its value is ~20 ng/mL.
